What all share (experiment): purified protein
Conditions in all cases: 25 °C, 50 mM Hepes/NaOH pH 7.5, 0.5% v/v reduced Triton X-100

Substrate in series [1]: NCCc1c[nH]c2ccc(O)cc12
Substrate in series [2]: NCCc1ccc(O)cc1
Format: biochemical, Homo sapiens.

Substrate in series [3]: NCCc1ccccc1
Format: biochemical, Homo sapiens.

Substrate in series [4]: NCCC(=O)c1ccccc1N
The class given is biochemical, Homo sapiens.

Substrate in series [5]: NCc1ccccc1

B1: Human MAOA (Homo sapiens) (protein)
chain: MENQEKASIAGHMFDVVVIGGGISGLSAAKLLTEYGVSVLVLEARDRVGGRTYTIRNEHVDYVDVGGAYVGPTQNRILRLSKELGIETYKVNVSERLVQYVKGKTYPFRGAFPPVWNPIAYLDYNNLWRTIDNMGKEIPTDAPWEAQHADKWDKMTMKELIDKICWTKTARRFAYLFVNINVTSEPHEVSALWFLWYVKQCGGTTRIFSVTNGGQERKFVGGSGQVSERIMDLLGDQVKLNHPVTHVDQSSDNIIIETLNHEHYECKYVINAIPPTLTAKIHFRPELPAERNQLIQRLPMGAVIKCMMYYKEAFWKKKDYCGCMIIEDEDAPISITLDDTKPDGSLPAIMGFILARKADRLAKLHKEIRKKKICELYAKVLGSQEALHPVHYEEKNWCEEQYSGGCYTAYFPPGIMTQYGRVIRQPVGRIFFAGTETATKWSGYMEGAVEAGERAAREVLNGLGKVTEKDIWVQEPESKDVPAVEITHTFWERNLPSVSGLLKIIGFSTSVTALGFVLYKYKLLPRS
notes: recombinant, overexpressed and purified by published protocols
B1: the Km in the series “purified protein [1]” was 1800 ± 100 µM; in the series “purified protein [2]” it was 100 ± 20 µM; in “purified protein [3]”, 400 ± 100 µM; in the series “purified protein [4]”, 200 ± 20 µM. Further, the kcat stood at 3.777 ± 0.075 s⁻¹ in the series “purified protein [1]”, 1.53 ± 0.07 s⁻¹ in the series “purified protein [2]”, 0.803 ± 0.055 s⁻¹ in “purified protein [3]” and 1.39 ± 0.0383 s⁻¹ in the series “purified protein [4]”. Moreover, the kcat/Km in the series “purified protein [1]” was 2100 M⁻¹ s⁻¹; in “purified protein [2]”, 15300 M⁻¹ s⁻¹; in the series “purified protein [3]”, 2010 M⁻¹ s⁻¹; in “purified protein [4]”, 6920 M⁻¹ s⁻¹.

B2: Human MAOB (Homo sapiens) (protein)
chain: SNKCDVVVVGGGISGMAAAKLLHDSGLNVVVLEARDRVGGRTYTLRNQKVKYVDLGGSYVGPTQNRILRLAKELGLETYKVNEVERLIHHVKGKSYPFRGPFPPVWNPITYLDHNNFWRTMDDMGREIPSDAPWKAPLAEEWDNMTMKELLDKLCWTESAKQLATLFVNLCVTAETHEVSALWFLWYVKQCGGTTRIISTTNGGQERKFVGGSGQVSERIMDLLGDRVKLERPVIYIDQTRENVLVETLNHEMYEAKYVISAIPPTLGMKIHFNPPLPMMRNQMITRVPLGSVIKCIVYYKEPFWRKKDYCGTMIIDGEEAPVAYTLDDTKPEGNYAAIMGFILAHKARKLARLTKEERLKKLCELYAKVLGSLEALEPVHYEEKNWCEEQYSGGCYTTYFPPGILTQYGRVLRQPVDRIYFAGTETATHWSGYMEGAVEAGERAAREILHAMGKIPEDEIWQSEPESVDVPAQPITTTFLERHLPSVPGLLRLIGLTTIFSATALGFLAHKRGLLVRV
notes: as for B1
With B2, the Km in the series “purified protein [5]” was found to be 350 ± 100 µM; in the series “purified protein [2]”, 400 ± 110 µM; in the series “purified protein [3]” it was 11 ± 1 µM; in the series “purified protein [4]”, 52 ± 7 µM. For the same protein, the kcat in the series “purified protein [5]” worked out at 0.738 ± 0.0833 s⁻¹; in “purified protein [2]”, 0.742 ± 0.0833 s⁻¹; in the series “purified protein [3]”, 0.758 ± 0.0167 s⁻¹; in the series “purified protein [4]”, 0.485 ± 0.0167 s⁻¹. The kcat/Km in the series “purified protein [5]” was found to be 2100 M⁻¹ s⁻¹; in the series “purified protein [2]”, 1850 M⁻¹ s⁻¹; in the series “purified protein [3]” it was 68900 M⁻¹ s⁻¹; in “purified protein [4]”, 9300 M⁻¹ s⁻¹.

The values above are taken from publication PMC11833248, “Evolutionary and Functional Analysis of Monoamine Oxidase F: A Novel Member of the Monoamine Oxidase Gene Family” (Genome Biology and Evolution, 2025).
